Data: a protein production outcome set (Wang et al. 2014)

Assay: label from the status in PepcDB records
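Note: failed if final PepcDB status was selected cloned or expressed and not failed if soluble or beyond.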

| Sequence | protein production |
| --- | --- |
| MKPDIYENNREGILCVYKNEKWLVCIKNWKPDNDIEGIAHLEIHHSTDEQFILSAGKAILITAEKENDKFNIELTLMEKGKVYNVPAECWFYSITQKDTKMMYVQDSNCSMDNSDFCDLSKEEIEYIQTNARKLFEK | not failed |
| LQTALARLGQWGILSRDLYGFFDQATELIRTALGVDYCGLWELLPNRSALVLCAGDGWDKALVGNYTIDATNRSYAGYTIQHNGDRRMEDYEPIVELDLRISTKFRASPLLHNLGIVSGINLMVAGPRTAFGVLGVYSLTARKFTEEEIEFLKVASHILAAAIDRQEYEERLLLLQQAIDASS | failed |
| QESVEDSLATVKVVLIPVGQEIVIPFKVDTILKYLKDHFSHLLGIPHSVLQIRYSGKILKNNETLVQHGVKPQEIVQVEIFSTNPDLYPVRRIDGLTDVSQIITV | not failed |
| MRQSCLMTEQLQDIKTLIEQGDTERAIHALTNFIRNDAHVNDEPYYLLGNAYRKMGDWQQALNNYLEAIERNPESPAVSARNMIMNILNFYNKDMYNQ | failed |
| MRLTVDQALAQAIAAHRSGQLQDAERLYRAILDAAPGHADANHNLGVLAVGVGKPQAGLSFLKAALEINPAQGQFWVSYIDALIAAGLPAAARDHLEQAKRRGLTGDAVERLEKRLDPASQPPQALLDSVVAQYRSGNLAAAESQAHALTLSFPNHELGWKVLGAVFSVTGRSEESLASMRQALSLNPQDAETFKNLAILLLKLKRAEEAEAACRSALALAPDYPQVHLTLGNALIDLARAAEAEESFRQAIRLKPDYSEAHCNLGCALKLSGRLTEAETCFRRAIQLNPADAQAHNNLGDVFKDLGRFADAEAFYRAAIGLKPEYLEAHSNLLLCLNYFETSSPDTYLAEAKQYGSVASAAATPKFSAWSIQPEPRRLRVGFISGDLNSHPVGYFSESVFQHLDRDRFELFAFPTTPKTDALTSRISPFFAGWCPIFGMDDHAAATAIHTQGVHVLVDLSGHTADNRLPVFAFRPAPVQASWLGYFATTGLPEMDYFLGDRYMVTETEQQRFTETLWRLPETWLCLAPHERSIPINPPPVLTNGFMTFGCLGNLSKMNGEVVALWSQILRAVPESKLLLKAKPFVDAQVVADIQARFAREGVSSDRLILEGPSSRAEYFETYNRIDLVLDTFPYPGGTTSVDALWMGVPVLTLAGDRFLARLGESIARNAGQSAWVARDRADYLAKAVAFASVRDVAHDRPALRRSVLTTPLFDPERFARDFGDTLWGMWSQGRSHPLRKDAPCRS | failed |
| MDGTVTPSPITTAMPPVSALDAGTPTLPPEAPLAMPEQNLREGSLQVRHQRTSPPGIGVRRFYLIGGTFATTAIAVWVMLSVLWPDGISVLEGCLLGLFVLLFAWIAMSFASAVAGFVTVVARAGRKLGIDPEQPLPTLRSRTALLMPTYNEDPRRLLAGLQAIYESVAETGQLEHFDFFVLSDTTREHIGRAEELVYNALCDRVGGHGRIFYRRRADNAARKAGNVADWVRRFGGSYPQMLILDADSVMTGDTIVRLVAGMENNPDVGLIQTLPAVVNGQTLFARMQQFGGRVYGPIIAFGVAWWHGAESNYWGHNAIIRTQAFADHAGLPSLRGRKPFGGHVLSHDFVEAALMRRGGWAMHMVPYLQGSYEEGPPTLTDLLIRDRRWCQGNLQHAKVVGAKGLHWISRMHMLIGIGHYFTAPMWGLLMLIGIGIPLAGGDIDLAGDLPFSPARYWHGSSQGNAIWIFVCTMFVLLAPKLLGYIALLLNPRELRACGGAFRAAVSILLETVLAALMAPVVMYLQSRGVFEVLAGKDSGWDAQVRDDGKLSWPALLRSYGGLTVFGLFMGAVAYAVSPALAAWMGPVIVGMALSIPVVALTSLRRTGMALRRAGIFCIPEELDPPKVLVRASELRRAAALEPSLI | failed |
| MERRLGVRAWVKENRGSFQPPVCNKLMHQEQLKVMFIGGPNTRKDYHIEEGEEVFYQLEGDMVLRVLEQGKHRDVVIRQGEIFLLPARVPHSPQRFANTVGLVVERRRLETELDGLRYYVGDTMDVLFEKWFYCKDLGTQLAPIIQEFFSSEQYRTGKPIPDQLLKEPPFPLSTRSIMEPMSLDAWLDSHHRELQAGTPLSLFGDTYETQVIAYGQGSSEGLRQNVDVWLWQLEGSSVVTMGGRRLSLAPDDSLLVLAGTSYAWERTQGSVALSVTQDPACKKPLG | failed |
| MNQDLSQTFLAITRNSTDLEWLQGALAPLGQVVGADGSLDELLALVDVTFANLVFVGLDREHVVAQAALIEGALEAKPMLAIVALGDGMDNQLVLNAMRAGARDFVAYGSRSSEVAGLVRRLSKRLPAVTPNTQLGGLTVLYGAQGDGDGALLASHLALVVQKSGQQTLLLDLGLPRGDSLALLGLESSFHFGDALRHLRRLDATLIDSAFTSAEAGLRILAYASHDAPLEHTSAAELYMLLSALRQHFQHIVVNLVGQPDSEALRTFVSHCDKLLWCTDQNVLDCRRNLAVLNHWREKGMKLEHARLLVDRYLRTVAPDSETLGKTFGLEVIAVLAYSPEVRLNAKNQGVTLFELAPREALTQSLRTLGERLAKRSQGLPKPKAGWLNRIMGGRLEHHHHHH | failed |
| MKVAVIGSGISGLGSAYVLANQGVKEVVLYEKEESLGGHAKTVRFDGVDLDLGFMVFNRVTYPNMIEFFENLGVEMEVSDMSFAVSLDNGKGCEWGSRNGVSGLFAQKKNVLNPYFWQMIREIVRFKEDVLNYIEKLEGNPDIDRKETLGEFLNTRGYSELFQQAYLVPICGSIWSCPSDGVLSFSAYSVLSFCCNHHLLQIFGRPQWLTVAGRSQTYVAKVRAELERLGCKIRTSCDVKSVSTSENGCVTVTSGDGSEEVFDRCILAMHAPDALRLLGEEVTFDESRVLGAFQYVYSDIYLHHDIDLMPRNKAAWSAWNFLGSTEKKVCVTYWLNILQNLGENSEPFFVTLNPDETPKKALLKWTTGHPVPSVAASIASQELHQIQGKRNIWFCGAYQGYGFHEDGLKAGMAAARGLLGKETALLNNPRHMVPSLTETGARLFVTRFLGQFISTGSVTILEEGGTMFTFGGKDSTCPLKSILKIHSPQFYWKVMTQADLGLADAYINGDFSFVDKESGLLNLIMILIANRDTKSNLTKKRGWWTPMFLTAGLASAKYFLKHVSRQNTLTQARRNISRHYDLSNELFGLFLDDTMTYSSAVFKSDDEDLRTAQMRKISLLIDKARIEKDHEVLEIGCGWGTLAIEVVRRTGCKYTGITLSIEQLKYAEEKVKEAGLQDRITFELRDYRQLSDAHKYDRIISCEMLEAVGHEFMEMFFSRCEAALAEDGLMVLQFISTPEERYNEYRLSSDFIKEYIFPGACVPSLAKVTSAMSSSSRLCIEHVENIGIHYYQTLRLWRKNFLERQKQIMALGFDDKFVRTWEYYFDYCAAGFKTRTLGDYQLVFSRPGNVAAFADSYRGFPSAYCVS | failed |
| MEESKELNAVIDVIMLAGTILLKSGSEIHRVEDTMIRIAHSQGIVDCNVLAMPAAIFFSIENTNISRMKRVTSSSYNIEKVCDVNQISRQLVGGQIDLETAFKQLTALQAKPLPYTKLQVTLAATFSAPFFSVMFSGNIYDALGAGVATLFGFAFSLYVEKFIRIPFVTAFAGAFVFGIIAQFWARYTGFPSTADLIIAGAVMPFVPGIALTNAVRDIMTNHINSGMSKMFESLLITLALGAGTSVALVLMN | failed |
| MGVPEINEYGQQVNDLVPGWQGAQVLRRTALNGRFCRLEPLDVDRHAADLFAAYALGDNSDWTWLASTRPESVTATAHWIAGKVNDDVLVPYAVVDLRSEQAVGIVSYMAIEREMGTVEIGHVTWSRRMKNTPLGTEAVWLLLKNGFDHGYRRLEWKCDSMNVASRRAAERLGFSWEGRLRQRLVRKGRTRDSDMLSIIDGEWPARDAALRAWLAAENFTADGQQIKRLEAFR | failed |
| LNHVAEELCAATNESEVFSIITRSASHIISAQRISYCVPNYKDKCFEIRSVFSENEVMKSATVDMENSALQFVLQSGSPQFFENLAVTNFTDHLILSKNGLCSGWSVPVRVKGEIVGLLNAASNVKINERAQQLGVIKMLSGIMGVTLSRVNLQEQLEHQ | failed |
| MKAPLVSIIIPVWNLWELTCACLDSIRAHTPGNAVEVIVVDNGSDDTTATALAPTGEGLFGARFRRIRLETNRGFAVACNLGAAKAQGTYLLLLNNDTVLSPGWLPPLLREFDDEPRTGAAGPLLVYPDSGRVQHCGIAFAPTLQTEHLYANFPATHPAVRARRTLQAITGAAMLLPTALFRQCGGFHEGYKNGCEDLELCCRIREQGLRLAVVPESLVAHHESRTPGRKEHDAANATLLNRRCSGCFGPDLHRHALRDGFAIALTPWLDTYLTLPPGREAALTREHITDFDPGRCWETLQGEPLWHGGYEMLCSILDEAGRHAESAGVRLLQAGFFPTLPGFRQLARSAALSGNDELARQAAEKMQHIGGILEDPEPLVTRARGLVRWARRAGEPAVEALYTGWLTDIGLSADDLEHHHHHH | not failed |
| MPGIDFDALYRGESPGEGLPPITTPPWDTKAPKDNVIGWHTGGWVHGDVLDIGCGLGDNAIYLARNGYQVTGLDISPTALTTAKRRASDAGVDVKFAVGDATKLTGYTGAFDTVIDCGMFHCLDDDGKRSYAASVHRATRPGATLLLSCFSNAMPPDEEWPRSTVSEQTLRDVLGGAGWDIESLEPATVRRELDGTEVEMAFWNVRAQRRGS | failed |
| MDQNAILLALGGIGAAALLSQWLAWRLRLPAILFLLLSGIVAGPLLGWLDPDEMFGPLLFPLVSLAVALILFEGSLTLHFSEWKEIGTVVHRMVTIGALSTWGVIALAAHYLLDFSWEMALLFGTLTLVTGPTVIVPMLRVVRPKAAVANILRWEGIVIDPIGALLAVVVYSFIISSGEGDGWLHSLQTFGGVILCGSLFGILGGWALGIVLRRHWLPDYLHNLATLAAVLGVFIASNRVMHESGLLAVTLMGMGLANMKGVDVRQILHFKENLSVLLISGLFILLAARLDINALLGLGPAALLVLLLIQFVARPLNVALSTWGSPLSWRERALLSWIAPRGIVAAAVSAIFAIRLSAEGHAQAALLVPLTFLVIIGTVVLQSATARPLARLLKVAEPSPSGYLIVGANPVGRAIGKALKSLGSRVLLTDSSWENIRAARMDNLPTYFGNPTSQHAEAHLDLVGIGHLLGVSPAGELNTLAAMRFRHEFGHRQLFGLPTSQEAKRTDKHRSSDEHRGRPLGQRPLTYAQFASLLSRGAEIRTTLLTDTFGWNDYQALHGESAILLFARDPNGRMHVATPQSTLAPGTGWTLLSLIDAEPSVSKSQATEIAD | failed |
| MNFNRFTQRAKKAIDLAFESAKSLGHNIVGSEHILLGLLREEEGIAAKVLSKVGFTEAYLEGKIVDMEGKGEEISEDIVLSPRSKQILELSGMFANKLKTNYIGTEHILLAIIQEGEGIANKILNYAGVNDRTLAQLTIDMMG | not failed |
| MSHEQPVTVSVARTILPGYTRQANAWAHAGQELAREWPGYLGSGWVRNGVDSAEWHMLYRFADADSLQEWEDSEERRWWIDSARDMMETTRVERHTGIEGWFSRPGDVSVVVPETVVPPRWKQAISIFLPFFPLSLLANFLLHPLTQDWQLVLSVLLNIVILTPLMTYIFLPITTRLLQPWLQAKPRKRPR | failed |
| MRKLTFLLTFFMLLGSVQLQAKEYAIKDIPMVHLQNRTRYVSNPDGILSSTAVTTMDSILYALEQKTGIQTLVVAVTGIEGGDCFDFAHRLGQETGVGQKERDNGLVILLSTDERCVQFATGYGLEGILPDAICKRIQNRYMLPYFKDNNWNAGMVAGIRAVNGYLDGSMENIGNDESEDDPLEFIIIFFVIFGGFIGIGLYANWRKTRCPHCKKHKLQRLSSKVIDRSNGTKTEEVVYKCRNCGHILRRKERSRDENYKGPRGGGPFIGGMGGGFFGGHGGSGGGFSGGSFGGGSFGGGGAGSRF | failed |
